# In patent US20250000973A1 (Novartis, published 2025):
# B1: anti-human BCMA single chain antibody variable fragment (scFv) (PI61) (scFv)
# scFv: QVQLQESGGGVVQPGRSLRLSCAASGFTFSSYGMHWVRQAPGKGLEWVAVISYDGSNKYYADSVKGRFTISRDNSKNTLYLQMNSLRAEDTAVYYCGGSGYALHDDYYGLDVWGQGTLVTVSSGGGGSGGGGSGGGGSQSALTQPASVSGSPGQSITISCTGTSSDVGGYNYVSWYQQHPGKAPKLMIYDVSNRPSGVSNRFSGSKSGNTASLTISGLQAEDEADYYCSSYTSSSTLYVFGSGTKVTVL
# notes: also called PI61 scFv
# Molecular target: T1, BCMA (TNFRSF17), human plasma membrane protein array (human, UniProt Q02223 1-184)
# T1 construct: also called B-cell maturation antigen
# T1 sequence (looked up): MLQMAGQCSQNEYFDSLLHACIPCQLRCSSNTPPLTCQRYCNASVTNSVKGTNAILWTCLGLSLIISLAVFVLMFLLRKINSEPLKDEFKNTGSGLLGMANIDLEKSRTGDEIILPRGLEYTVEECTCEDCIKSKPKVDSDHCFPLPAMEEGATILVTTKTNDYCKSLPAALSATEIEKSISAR
# Assay: commercial human plasma membrane protein array
binder,measurement,value
B1,binding result,binds
